# Measured values taken from the RNAGym collection of RNA variant scans (doi:10.7554/elife.80360).
# B1: Hairpin Ribozyme (parent)
# chain: GUCCUCUUUCACGUGCGCGUGAAAGAGAGAAGUGAACCAGAGAAACACACGUUGUGGUAUAUUACCUGGUA
# Variants of: B1
# Test: self-cleavage, relative activity (ratio to wild type); higher = more cleavage; co-transcriptional
row,Variant,self-cleavage
1,A11G G68U,0.143
2,A11G G68C,0.221
3,C12G U70G,0.615
4,G13A A31U,0.202
5,C12U C16A,0.735
6,C12U C16G,0.78
7,C12U G57U,0.262
8,C12U G57A,0.215
9,C12G G34U,1.16
10,C12G G34A,1.03
11,C12U A43C,0.105
12,G13A A43C,0.119
13,G13A A44U,0.133
14,G13A A44C,0.195
15,C12G C50U,0.291
16,C12U C50G,0.231
17,C12G U52C,0.899
18,G13A U33A,0.165
19,G13A U33G,0.136
20,G13A U33C,0.139
21,C12G C16U,0.812
22,C12G U14A,0.629
23,C12G U14G,0.684
24,C12A G68A,0.262

row,Variant,self-cleavage
1,C12A G68U,0.251
2,C12A G68C,0.241
3,C12U C46A,0.177
4,C12U C46G,0.142
5,G13A A45U,0.0732
6,G13A A45C,0.135
7,A11U C12U,0.694
8,A11U C12A,0.763
9,C12G A59G,0.18
10,C12G A41C,1.21
11,A11U C38A,0.2
12,A11U G25U,0.568
13,A11U G25A,0.402
14,C12U A64C,0.148
15,A11G U67G,0.354
16,A11G U67A,0.243
17,C12G A35G,0.874
18,A11U C37U,0.524
19,A11U C37G,0.369
20,G13A G27U,0.257
21,A11U U62G,0.0971
22,C12G A64G,0.466
23,C12A C46U,0.119
24,C12A C46A,0.202

row,Variant,self-cleavage
1,C12U A59C,0.149
2,G13C A36C,0.304
3,C12U C37U,0.504
4,G13A A28G,1
5,A11G G69A,0.405
6,C12G G15C,0.756
7,C12G G15U,0.906
8,A11G U58G,0.802
9,G13C A30C,0.112
10,C12U C38U,0.523
11,C12U G25C,0.511
12,C12U G25U,0.52
13,C12A C65G,0.282
14,G13A A26C,0.556
15,G13A A26G,0.778
16,G13A A26U,0.529
17,G13A A36G,0.873
18,G13A A36C,0.533
19,C12G A71C,1.3
20,C12G A71U,0.655
21,A11U A45G,0
22,A11U A45C,0.241
23,G13A G21A,0.594
24,G13A G21C,0.862

row,Variant,self-cleavage
1,C12U U63C,0.0427
2,C12U G13A,0.72
3,G13A U53C,0.645
4,C12A A22U,0.737
5,G13A G29C,0.153
6,G13A G29A,0.167
7,G13A G34A,1.19
8,G13A G34U,1.22
9,C12U A71U,0.656
10,C12U A71C,1.31
11,C12A A41C,1.05
12,C12A A41U,1.13
13,G13A U62A,0.163
14,G13A U20A,0.716
15,G13A U20G,0.723
16,A11U C18A,0.826
17,C12U G54C,0.47
18,C12U A22C,0.831
19,C12A G42C,0.272
20,C12A G42U,0.301
21,A11G U62G,0.332
22,A11G U62C,0.146
23,C12U U62A,0.148
24,G13A C65U,0.285

row,Variant,self-cleavage
1,A11U U60C,1.18
2,C12A A35G,0.914
3,C12A A35C,0.978
4,C12U A41C,0.886
5,C12G G32C,0.0993
6,C12A G13A,0.635
7,C12A G13C,0.927
8,C12G A36G,0.843
9,C12G A36C,0.533
10,C12G A22G,0.739
11,C12G A22U,0.686
12,G13C A35C,0.717
13,G13A A22U,0.748
14,A11U C50A,0.153
15,G13A G32U,0.205
16,A11U G17U,0.562
17,A11U G17A,0.751
18,C12A G40U,0.186
19,C12A G40C,0.15
20,A11G U60C,1
21,A11G U60A,0.732
22,G13A C50G,0.316
23,C12G G42C,0.351
24,C12U A31G,0.549

row,Variant,self-cleavage
1,G13A G25C,0.36
2,A11U A30C,0.236
3,C12U C66A,0.179
4,C12G U55A,0.25
5,A11U,0.831
6,C12A A71U,0.701
7,C12A A71C,1.26
8,A11U G40U,0.154
9,A11U G57A,0.15
10,A11U G57U,0.337
11,C12A A44G,0.114
12,C12A A44C,0.0806
13,G13A G40A,0.33
14,C12A G25C,0.346
15,C12A A49C,0.0858
16,A11U A61C,0.137
17,C12G G57U,0.322
18,G13A A23U,0.734
19,C12U U33C,0.187
20,C12A U62A,0.168
21,C12A U55G,0.406
22,C12G A49G,0.462
23,A11U A43G,0.135
24,A11U A43C,0.139

row,Variant,self-cleavage
1,G13C A22C,0.591
2,C12U C18A,1.01
3,G13C A26C,0.403
4,C12U C48G,0.185
5,C12G C66U,0.369
6,C12G C66G,0.26
7,G13A G54A,0.443
8,A11U U58C,0.822
9,A11U A47G,0.247
10,A11U A47C,0.232
11,G13A U70A,0.735
12,G13A U70G,0.629
13,C12A U58G,0.708
14,G13A U55G,0.112
15,C12U A47C,0.221
16,A11U G29A,0.137
17,C12U G40C,0.194
18,C12U G40A,0.358
19,A11G U52A,0.857
20,A11G U53A,0.945
21,A11G U53G,0.755
22,C12G A47G,0.076
23,C12G A47U,0.183
